We go through four molecules from patent US20080014599A1 (published 2008).

The target in experiment [1] is T1, TSC2 (human, UniProt P49815 1-1807, limits assumed).
T1 construct: Untagged TSC2 in 293T cell extracts, endogenous or from a transfected TSC2 cDNA; Some extracts of the pull-downs may hold HA-TSC2; also called tuberin; endogenous TSC2
The experiment can be described thus: in vitro pull-down from extract with 6× His baits (FIG. 13).

Experiment [2] has as its target T2, HA-SV5-full length hRTP801 (human, UniProt Q9NX09 1-232).
T2 construct: Full length, expressed in transfected 293T HEK cells; also called HA-SV5-hRTP801; HA-full length hRTP801; not shown: HA and SV5 tags
T2 sequence: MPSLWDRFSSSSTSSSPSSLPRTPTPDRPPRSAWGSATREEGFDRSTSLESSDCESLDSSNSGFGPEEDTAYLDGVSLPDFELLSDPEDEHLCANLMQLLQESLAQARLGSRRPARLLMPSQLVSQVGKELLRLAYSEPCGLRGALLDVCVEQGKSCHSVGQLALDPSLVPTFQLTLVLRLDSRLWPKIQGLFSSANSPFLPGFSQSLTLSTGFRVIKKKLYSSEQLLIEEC
The experiment can be described thus: co-IP with M2 anti-FLAG resin from 293T HEK extracts, immunoblot (FIG. 21). As for the experimental part:
293T HEK cells were co-transfected with a plasmid containing cDNA of HA-SV5-full length hRTP801 (“Prey”) as well as plasmid containing cDNA of one of the following: FLAG-full length hRTP801, FLAG-(C) hRTP801, FLAG-(N-C1) hRTP801, FLAG-(N-C1) hRTP801, FLAG-(N-C2)hRTP801 and FLAG-(C3) hRTP801. Forty-eight hours after transfection, cells were treated with 150 uM cobalt chloride for 18 hrs to mimick hypoxic stress conditions. The next day, cytosolic extracts were made by mechanic lysis under hypotonic conditions. FLAG-tagged bait proteins were immunoprecipitated with M2 anti-FLAG resin (Sigma). Following extensive washing, immunoprecipitated material was analyzed by immunblotting with either anti-hRTP801 polyclonal antibodies (proprietary) or with anti-SV5 polyclonal antibodies (AbCam).

The target in experiment [3] is T3, HA-tagged TSC2 “N” fragment (a.a. 2-935) (human, UniProt P49815 2-935).
T3 construct: Printed as a.a; also called HA-“N” fragment of TSC2; not shown: HA tag
T3 sequence (P49815 other isoform, or with tags, fused parts or gaps): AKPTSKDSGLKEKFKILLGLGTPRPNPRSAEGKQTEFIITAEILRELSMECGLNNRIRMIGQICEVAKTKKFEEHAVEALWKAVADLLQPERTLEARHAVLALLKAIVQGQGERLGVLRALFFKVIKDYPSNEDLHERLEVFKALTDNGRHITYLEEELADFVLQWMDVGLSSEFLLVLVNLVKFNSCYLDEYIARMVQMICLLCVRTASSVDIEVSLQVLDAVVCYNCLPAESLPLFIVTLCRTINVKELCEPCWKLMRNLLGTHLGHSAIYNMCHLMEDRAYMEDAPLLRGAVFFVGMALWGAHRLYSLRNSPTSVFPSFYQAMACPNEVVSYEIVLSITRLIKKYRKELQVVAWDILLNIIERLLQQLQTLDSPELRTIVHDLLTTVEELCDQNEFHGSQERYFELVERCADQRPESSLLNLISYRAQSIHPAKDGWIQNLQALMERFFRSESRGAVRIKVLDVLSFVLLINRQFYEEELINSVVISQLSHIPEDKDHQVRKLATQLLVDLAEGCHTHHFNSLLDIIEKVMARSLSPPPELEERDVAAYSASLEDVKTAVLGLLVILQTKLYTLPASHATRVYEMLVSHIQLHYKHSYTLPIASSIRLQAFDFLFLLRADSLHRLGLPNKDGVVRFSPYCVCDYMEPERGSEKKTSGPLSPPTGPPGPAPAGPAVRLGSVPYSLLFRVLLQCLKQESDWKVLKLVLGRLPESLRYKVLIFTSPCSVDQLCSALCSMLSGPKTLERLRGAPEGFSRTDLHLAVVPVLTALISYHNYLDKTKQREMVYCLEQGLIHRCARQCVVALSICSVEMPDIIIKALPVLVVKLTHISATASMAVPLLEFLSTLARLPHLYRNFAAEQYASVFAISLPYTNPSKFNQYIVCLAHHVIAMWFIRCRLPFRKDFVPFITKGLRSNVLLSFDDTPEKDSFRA
The experiment can be described thus: co-IP with anti-FLAG, anti-HA blot (FIG. 17). Here is the method: Cytosolic extracts were prepared and IP was done using anti-FLAG antibodies. Analysis of the immnocomplexes was done with anti-HA.

The target in experiment [4] is T1, TSC2. Put plainly: co-IP with anti-FLAG from 293T extracts (FIG. 34). As for the experimental part: Description: 293T cells were transiently transfected with either empty plasmid or with plasmid containing FLAG-hRTP801 or FLAG-hRTP801-L (REDD2) cDNAs. 48 hrs. post-transfection, cobalt chloride (150 uM) was added (or omitted) for another 24 hrs. Cytosolic extracts prepared and IP was done using anti-FLAG antibodies. Alternatively, 293T cells were transiently transfected with plasmid containing FLAG-hRTP801 cDNA and plasmid containing TSC1 or TSC2 cDNAs or both. 48 hrs. post transfection, cobalt chloride (150 uM) was added for another 24 hrs. Cytosolic extracts prepared and IP was done using anti-TSC1, anti-TSC2 or normal rabbit IgG (NRIgG) antibodies. Alternatively, 293T cells were transiently transfected with either empty plasmid,plasmid containing FLAG-hRTP801 cDNA and plasmids containing either TSC1 and/or TSC2 cDNAs. 48 hrs. post transfection, cobalt chloride (150 uM) was added for another 24 hrs. Cytosolic extracts prepared and IP was done using anti-FLAG antibodies.

The target in the next experiment is T4, HA-tagged TSC2 (HA-TSC2) (human, UniProt P49815 1-1807).
T4 construct: Expressed in transfected 293T cells; also called full length HA-tagged TSC2; not shown: HA tag
T4 sequence (P49815 other isoform, or with tags, fused parts or gaps limits assumed): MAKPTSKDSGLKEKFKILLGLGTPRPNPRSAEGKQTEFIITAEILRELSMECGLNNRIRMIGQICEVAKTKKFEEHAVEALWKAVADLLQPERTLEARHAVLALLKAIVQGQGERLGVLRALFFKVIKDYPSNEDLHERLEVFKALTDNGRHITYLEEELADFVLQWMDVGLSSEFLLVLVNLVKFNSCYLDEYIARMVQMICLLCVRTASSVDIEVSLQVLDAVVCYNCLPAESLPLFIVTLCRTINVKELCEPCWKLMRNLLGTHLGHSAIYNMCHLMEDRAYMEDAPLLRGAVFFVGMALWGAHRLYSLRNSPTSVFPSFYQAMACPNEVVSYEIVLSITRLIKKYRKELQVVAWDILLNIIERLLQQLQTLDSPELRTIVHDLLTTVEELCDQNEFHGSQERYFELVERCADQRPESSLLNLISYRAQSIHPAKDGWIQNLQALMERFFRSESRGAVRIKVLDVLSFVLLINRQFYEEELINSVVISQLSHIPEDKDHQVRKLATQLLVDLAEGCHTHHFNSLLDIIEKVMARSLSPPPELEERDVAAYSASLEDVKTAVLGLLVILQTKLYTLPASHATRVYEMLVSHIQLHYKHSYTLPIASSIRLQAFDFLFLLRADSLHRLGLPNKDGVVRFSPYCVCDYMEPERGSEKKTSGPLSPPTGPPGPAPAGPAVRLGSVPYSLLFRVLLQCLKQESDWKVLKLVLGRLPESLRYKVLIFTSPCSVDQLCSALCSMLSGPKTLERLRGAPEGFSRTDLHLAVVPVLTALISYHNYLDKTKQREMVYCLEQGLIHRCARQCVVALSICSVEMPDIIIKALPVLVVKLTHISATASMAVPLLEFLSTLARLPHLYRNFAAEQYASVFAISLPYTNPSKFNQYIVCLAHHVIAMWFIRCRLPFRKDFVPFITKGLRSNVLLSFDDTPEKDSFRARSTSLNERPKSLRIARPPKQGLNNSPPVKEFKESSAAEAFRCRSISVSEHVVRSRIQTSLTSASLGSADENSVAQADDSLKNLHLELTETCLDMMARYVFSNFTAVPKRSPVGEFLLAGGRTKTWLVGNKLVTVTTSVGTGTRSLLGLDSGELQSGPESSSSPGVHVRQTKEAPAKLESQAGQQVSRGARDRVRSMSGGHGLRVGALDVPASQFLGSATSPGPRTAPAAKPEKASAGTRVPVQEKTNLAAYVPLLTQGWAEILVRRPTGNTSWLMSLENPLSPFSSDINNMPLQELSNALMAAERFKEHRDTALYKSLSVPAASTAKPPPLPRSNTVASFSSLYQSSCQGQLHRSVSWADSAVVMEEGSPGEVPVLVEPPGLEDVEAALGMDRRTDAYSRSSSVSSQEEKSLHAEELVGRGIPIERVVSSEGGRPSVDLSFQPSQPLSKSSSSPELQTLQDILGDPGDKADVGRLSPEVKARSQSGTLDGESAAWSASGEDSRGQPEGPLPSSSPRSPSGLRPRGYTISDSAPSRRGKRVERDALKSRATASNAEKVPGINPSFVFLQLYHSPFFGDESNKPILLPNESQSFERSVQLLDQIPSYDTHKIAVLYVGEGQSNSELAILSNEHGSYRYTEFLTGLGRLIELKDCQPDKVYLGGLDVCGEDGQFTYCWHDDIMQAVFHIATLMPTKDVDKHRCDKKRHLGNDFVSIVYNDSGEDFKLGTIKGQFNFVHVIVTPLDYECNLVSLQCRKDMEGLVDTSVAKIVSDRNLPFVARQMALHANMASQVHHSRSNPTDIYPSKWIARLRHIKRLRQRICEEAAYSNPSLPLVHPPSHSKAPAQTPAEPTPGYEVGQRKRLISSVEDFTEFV
The experiment can be described thus: co-IP with anti-FLAG from transfected 293T post-nuclear supernatant (FIG. 25). As for the experimental part:
TSC2 region that binds hRTP801 (FIG. 25). Human TSC2 HA-tagged “N” and “C” fragments (FIG. 25, upper panel) as well as full length HA-tagged TSC2 were transfected into 293T cells along with FLAG-hRTP801 or with empty vector. Forty-eight hours after transfection, the cells were treated with CoCl₂ for overnight. Cells were harvested and post-nuclear supernatant was prepared and used for IP with anti-FLAG antibodies. […] Similar results are achieved with RTP801L

T1 sequence (P49815 other isoform, or with tags, fused parts or gaps limits assumed): as above

B1: 6× His hRTP801 N-fragment (other)
chain: MPSLWDRFSSSSTSSSPSSLPRTPTPDRPPRSAWGSATREEGFDRSTSLESSDCESLDSSNSGFGPEEDTAYLDGVSLPDFELLSDPE
notes: not shown: 6× His tag
Regarding B1, the binding result with TSC2 [1] is given as “no binding”.

B2: FLAG-(N-C2)hRTP801 (other)
chain: MPSLWDRFSSSSTSSSPSSLPRTPTPDRPPRSAWGSATREEGFDRSTSLESSDCESLDSSNSGFGPEEDTAYLDGVSLPDFELLSDPEDEHLCANLMQLLQESLAQARLGSRRPARLLMPSQLVSQVGKELLRLAYSEPCGLRGALLDVCVEQGKSCHSVGQLALDPSLVPTFQLTLVLRLDSRLWPKIQGLFSS
notes: also called hRTP801 N-C2 fragment; hRTP801 N-C2 mutant; not shown: FLAG tag
In the case of B2, in experiment [2], the binding result was “binds”.

B3: FLAG-hRTP801 (other)
chain: MPSLWDRFSSSSTSSSPSSLPRTPTPDRPPRSAWGSATREEGFDRSTSLESSDCESLDSSNSGFGPEEDTAYLDGVSLPDFELLSDPEDEHLCANLMQLLQESLAQARLGSRRPARLLMPSQLVSQVGKELLRLAYSEPCGLRGALLDVCVEQGKSCHSVGQLALDPSLVPTFQLTLVLRLDSRLWPKIQGLFSSANSPFLPGFSQSLTLSTGFRVIKKKLYSSEQLLIEEC
notes: Full length hRTP801 with FLAG tag, expressed in transfected 293T cells; also called FLAG-full length hRTP801; FLAG-tagged hRTP801; not shown: FLAG tag
Take B3: the binding result (in experiment [3]; in the experiment with TSC2 [4]; with HA-tagged TSC2 (HA-TSC2)) was “binds” throughout.

B4: FLAG-hRTP801-L (REDD2) (other)
chain: MVATGSLSSKNPASISELLDCGYHPESLLSDFDYWDYVVPEPNLNEVIFEESTCQNLVKMLENCLSKSKQTKLGCSKVLVPEKLTQRIAQDVLRLSSTEPCGLRGCVMHVNLEIENVCKKLDRIVCDSSVVPTFELTLVFKQENCSWTSFRDFFFSRGRFSSGFRRTLILSSGFRLVKKKLYSLIGTTVIEGS
notes: Expressed in transfected 293T cells; also called FLAG-RTP801L; not shown: FLAG tag
B4: the binding result in the experiment with TSC2 [4] is on record as “binds”.
